Experimental data taken from PMC3581573 (PLoS ONE, 2013).

Legend:
[1] = biological target: T1, Recombinant Flag-tagged human PRMT5 (human, UniProt O14744 1-637); test: pull-down; XlMEP50 and Flag-HsPRMT5 (both 50 nM) on anti-Flag M2 agarose in TBS, 4°C, 2 hours; eluate immunoblotted for PRMT5 and MEP50; control: MEP50 without PRMT5; conditions: both partners purified
T1 construct: Protein arginine methyltransferase 5 (PRMT5), human; also called Flag-HsPRMT5; HsPRMT5; source: bought: SinoBiologicals (expressed in 293 cells)

[2] = biological target: the molecule itself; test: crystal structure; XlPRMT5-MEP50 co-crystallised with 1 mM SAH; 30%–40% MPD, 100 mM Bis-Tris pH 5.5, 18°C; 3.0 Å

T1 sequence (O14744 whole entry): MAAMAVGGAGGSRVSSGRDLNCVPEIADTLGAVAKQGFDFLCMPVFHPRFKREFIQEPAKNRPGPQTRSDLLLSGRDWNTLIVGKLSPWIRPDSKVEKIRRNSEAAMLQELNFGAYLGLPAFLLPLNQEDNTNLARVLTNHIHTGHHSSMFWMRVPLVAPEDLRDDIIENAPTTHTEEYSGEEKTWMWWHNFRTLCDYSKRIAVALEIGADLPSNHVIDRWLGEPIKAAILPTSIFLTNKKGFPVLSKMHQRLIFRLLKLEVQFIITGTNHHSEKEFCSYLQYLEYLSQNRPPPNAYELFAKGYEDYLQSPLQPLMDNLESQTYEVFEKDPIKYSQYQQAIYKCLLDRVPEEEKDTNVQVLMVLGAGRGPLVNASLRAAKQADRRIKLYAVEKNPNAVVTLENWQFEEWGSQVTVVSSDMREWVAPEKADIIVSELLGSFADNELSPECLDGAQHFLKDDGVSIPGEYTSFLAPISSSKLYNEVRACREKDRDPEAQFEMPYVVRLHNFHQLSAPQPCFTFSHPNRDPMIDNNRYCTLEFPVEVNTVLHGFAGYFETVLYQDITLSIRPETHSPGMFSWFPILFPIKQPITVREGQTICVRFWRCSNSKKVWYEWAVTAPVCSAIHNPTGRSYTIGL

Binder	binding result [1]	stoichiometry N [2]
Recombinant Xenopus laevis MEP50 alone (natural protein, UniProt Q6NUD0 1-333, looked up, MEP50, Xenopus laevis; recombinant protein used without PRMT5; also called XlMEP50; Xenopus MEP50) MSKGSAWGRPVTAPACMEVQIGAVRYRRDGALLLAASSLSSRTWGGSIWVFKDPEGAPNESLCTAGVQTEAGVTDVAWVSEKGILVASDSGAVELWEILEKESLLVNKFAKYEHDDIVKTLSVFSDGTQAVSGGKDFSVKVWDLSQKAVLKSYNAHSSEVNCVAACPGKDTIFLSCGEDGRILLWDTRKPKPATRIDFCASDTIPTSVTWHPEKDDTFACGDETGNVSLVNIKNPDSAQTSAVHSQNITGLAYSYHSSPFLASISEDCTVAVLDADFSEVFRDLSHRDFVTGVAWSPLDHSKFTTVGWDHKVLHHHLPSEGRTENLIATKAED	binds	–
Xenopus laevis PRMT5 (enzyme, UniProt Q6NUA1 1-633, looked up, Protein arginine methyltransferase 5 (PRMT5), Xenopus laevis, full-length, as the PRMT5 chain of the crystallised XlPRMT5-MEP50 complex; The complex was purified on Ni-NTA, so one or both chains probably carry a His tag; A selenomethionine form was used for phasing; also called XlPRMT5; source: Hi5 cells, baculovirus, co-expressed with MEP50, purified (Ni-NTA, Superdex 200)) MAAGDGGRVSSGRDVACVTEVADTLGAMANQGFDFLCMPIFHPRFKREFYKEPAKSRPGPQTRSDLLLSGRDWNTLIVGKLSDWIKTDSEVSRIRKTSEAAMQQELNFSAYLGLPAFLIPLKQEDNSNLSRLLINHIHVGHHSTMFWMRVPLMAPNDLRDDLIENEPISLSEEDNSGEERTWIWWHNFRSLCDYNKKIALAIEIGADLPSGHVIDRWLGEPIKAAFLPTSIFLTNKKGFPVLTKVHQRLIFKLFKLEVQFVISGSHHHSEKDLCSYLQYLEYLSQNSPPPNAYEMFAKGYEDYLQSPLQPLMDNLESQTYEVFEKDPVKYSQYQQAVYKCLLDRVPEEEKETNIQILMVLGAGRGPLVNASLRAAKQAERKIKVYAVEKNPNAVITLEGWRYEEWGSQVTVVSGDMREWKAPEKADIIVSELLGSFGDNELSPECLDGAQHFLKDDGVSIPGEYTSYLAPISSSKLYNEVRACREKDRDPEAQFEMPYVVRLHNFHQLSDPLPCFTFHHPNKDDVIDNNRYCCLQYRVDLNTVLHGFAGYFNTVLYKDVTLSICPESHSPGMFSWFPILFPIKQPIPMREGDTVCVRFWRCNNGKKVWYEWAVTSPVCSAIHNPTGRSYTIGL	–	4
